According to patent US20260242472A1 (SANYOU BIOPHARMACEUTICALS, published 2026):

B1: huCD3E-AA1-27-huFc (Fc fusion)
chain: QDGNEEMGGITQTPYKVSISGTTVILTTHTCPPCPAPELLGGPSVFLFPPKPKDTLMISRTPEVTCVVVDVSHEDPQVKFNWYVDGVQVHNAKTKPREQQYNSTYRVVSVLTVLHQNWLDGKEYKCKVSNKALPAPIEKTISKAKGQPREPQVYTLPPSREEMTKNQVSLTCLVKGFYPSDIAVEWESNGQPENNYKTTPPVLDSDGSFFLYSKLTVDKSRWQQGNVFSCSVMHEALHNHYTQKSLSLSPGK
notes: Made in HEK293 cells, purified on Protein A/G. No linker between the two parts is mentioned; also called antigen protein
B2: huCD3E-AA1-27-huFc-Biotin (Fc fusion)
chain: B1 chain
modifications: biotinylated (sites not given)
notes: also called biotinylated huCD3E AA1-27-huFc

Key:
H2C-scFv-LH [1] = molecular target: T1, H2C-scFv-LH (human); test: SPR (Biacore T200), antigen amine-coupled to about 75 RU, antibody 4 and 20 nM, 1:1 Langmuir fit
T1 construct: also called control antibody H2C-scFv-LH; parent antibody
Method: Protein coupling: The huCD3E-AA1-27-huFc protein produced in example 1.2 was diluted to 5.8 μg/mL with an NaAc buffer at pH 4.5. The flow rate was set to 10 μL/min. The chip was activated with a mixture of 1-ethyl-(3-dimethylaminopropyl)carbodiimide (EDC) and N-hydroxysuccinimide (NHS) for the default time of 420 s. The antigen protein huCD3E AA1-27-huFc was immobilized to a level of approximately 75 RU using a coupling mode with a preset coupling amount. The activated groups not bound to the test sample were blocked with ethanolamine.
Sample test condition: A PBS buffer (pH 7.4) containing 0.05% Tween-20 was used as a running buffer, and the running buffer was used as a control antibody test sample. A series of antibody concentrations (4 nM, 20 nM) were set. During sample analysis, the flow rate was set to 30 μL/min, the binding time was 180 s, and the dissociation time was 300 s. After dissociation was completed, regeneration was performed with 10 mM Gly-HCl (pH 2.0) for 20 s to completely remove antibody bound to the antigen.
Parameter fitting: The experiment was run in multiple cycles, with the response signal plotted against analysis time on the abscissa and response value on the ordinate. After dual-reference subtraction, the obtained data were fitted by BIAcore T200 analysis software. The fitting model used was a 1:1 Langmuir binding model, so as to determine affinity indicators such as the binding dissociation constant.

H2C-scFv-LH [2] = molecular target: T1, H2C-scFv-LH; test: BLI (Gator), biotinylated antigen on SA probe, antibody 0.62-40 nM
Method: (§1) Protein biotinylation: The antigen protein huCD3E AA1-27-huFc was diluted to a final concentration of 1 mg/mL, premixed with biotin and reacted at 4° C. for 1 h, and then unreacted free biotin was removed by filtration with an ultrafiltration tube to obtain biotinylated huCD3E AA1-27-huFc (hereinafter referred to as huCD3E-AA1-27-huFc-Biotin).
(§2) In the dark, the sensor was pre-wetted with Q Buffer (SA Probes, ProbeLife). After 10 min, the sample plate (Greiner, 655209) was tested. After the test was correct, the preset procedure was followed. First, antigen binding was performed for 600 s. After the binding was completed and equilibration was continued in Q Buffer for 30 s, the sensor bound to the antigen huCD3E-AA1-27-huFc-Biotin was transferred to different concentrations of antibody dilutions for binding for 120 s, and then transferred to Q Buffer for dissociation for 180 s. Finally, KD, Ka and Kd were obtained by fitting the binding and dissociation data of different concentrations of antigens and antibodies.

79-scFv-LH = molecular target: T2, 79-scFv-LH (human); test: as above
T2 construct: scFv-Fc
Method: as §1, §2

63-scFv-LH = molecular target: T3, 63-scFv-LH (human); test: as above
T3 construct: scFv-Fc
Method: as §1, §2

| Binder | Kd (H2C-scFv-LH [1]) | koff (H2C-scFv-LH [1]) | kon (H2C-scFv-LH [1]) | Kd (H2C-scFv-LH [2]) | koff (H2C-scFv-LH [2]) | kon (H2C-scFv-LH [2]) | Kd (79-scFv-LH) | koff (79-scFv-LH) | kon (79-scFv-LH) | Kd (63-scFv-LH) | koff (63-scFv-LH) | kon (63-scFv-LH) |
| --- | --- | --- | --- | --- | --- | --- | --- | --- | --- | --- | --- | --- |
| B1 | 59.6 pM | 0.000165 s⁻¹ | 2.77e+06 M⁻¹ s⁻¹ | – | – | – | – | – | – | – | – | – |
| B2 | – | – | – | 318 pM | 0.000327 s⁻¹ | 1.03e+06 M⁻¹ s⁻¹ | 222 pM | 0.000184 s⁻¹ | 826000 M⁻¹ s⁻¹ | 358 pM | 0.000428 s⁻¹ | 1.19e+06 M⁻¹ s⁻¹ |
